# T1: human GIP receptor (human, UniProt P48546 22-466)
# T1 construct: whole, on cells; also called hGIPR; human glucose-dependent insulinotropic polypeptide receptor
# T1 sequence (looked up): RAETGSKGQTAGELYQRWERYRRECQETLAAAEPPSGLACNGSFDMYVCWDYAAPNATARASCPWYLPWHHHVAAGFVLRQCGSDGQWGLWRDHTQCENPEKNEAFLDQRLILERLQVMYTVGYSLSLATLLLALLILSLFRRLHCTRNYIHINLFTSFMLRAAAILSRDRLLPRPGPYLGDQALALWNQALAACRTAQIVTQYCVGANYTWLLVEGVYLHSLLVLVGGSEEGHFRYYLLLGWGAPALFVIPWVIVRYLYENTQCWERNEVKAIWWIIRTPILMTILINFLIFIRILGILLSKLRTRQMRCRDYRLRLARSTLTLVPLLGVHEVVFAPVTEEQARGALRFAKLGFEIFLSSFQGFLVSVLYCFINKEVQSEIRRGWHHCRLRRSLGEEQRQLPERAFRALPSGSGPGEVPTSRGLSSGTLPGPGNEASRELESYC
# Key:
# [1] = biological target: T1, human GIP receptor; assay: SPA competition vs [125I]-GIP, hGIPR membranes
# [2] = biological target: T2, human glucagon receptor (human, UniProt P47871 26-477); assay: SPA competition vs [125I]-Gcg, hGcgR membranes
# T2 construct: whole, on cells; also called hGCGR; hGcgR
# Experimental: The binding buffer contains 25 mM 4-(2-hydroxyethyl)-1-piperazineethanesulfonic acid (HEPES), pH 7.4, 2.5 mM CaCl₂, 1 mM MgCh, 0.1% (w/v) bacitracin (Research Products), 0.003% (w/v) Polyoxyethylenesorbitan monolaurate (TWEEN®-20), and Roche Complete™ Protease Inhibitors without EDTA. […] Plates are sealed and mixed on a plate shaker (setting 6) for 1 minute and read with a PerkinElmer Trilux MicroBeta® scintillation counter after 12 hours of incubation/settling time at room temperature.
# Data are analyzed using four-parameter (curve maximum, curve minimum, IC₅₀, Hill slope) nonlinear regression routines (Genedata Screener, version 12.0.4, Genedata AG, Basal, Switzerland). […] Values for Kᵢ are reported as the geometric mean, with error expressed as the standard error of the mean (SEM) and n is equal to the number of independent replicates (determined in assays performed on different days).
# [3] = biological target: T3, human GLP-1 receptor (human, UniProt P43220 24-463); assay: SPA competition vs [125I]-GLP-1, hGLP-1R membranes
# T3 construct: whole, on cells; also called hGLP-1R; human glucagon-like peptide-1 receptor
# Outline: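 Kᵢ values are geometric means (SEM) over replicates run on separate days, derived from IC₅₀ of four-parameter curve fits. Buffer: HEPES 25 mM pH 7.4 with CaCl₂ 2.5 mM, MgCl₂ 1 mM, bacitracin 0.1%, TWEEN-20 0.003%, EDTA-free protease inhibitors.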
# T2 sequence (P47871 26-477): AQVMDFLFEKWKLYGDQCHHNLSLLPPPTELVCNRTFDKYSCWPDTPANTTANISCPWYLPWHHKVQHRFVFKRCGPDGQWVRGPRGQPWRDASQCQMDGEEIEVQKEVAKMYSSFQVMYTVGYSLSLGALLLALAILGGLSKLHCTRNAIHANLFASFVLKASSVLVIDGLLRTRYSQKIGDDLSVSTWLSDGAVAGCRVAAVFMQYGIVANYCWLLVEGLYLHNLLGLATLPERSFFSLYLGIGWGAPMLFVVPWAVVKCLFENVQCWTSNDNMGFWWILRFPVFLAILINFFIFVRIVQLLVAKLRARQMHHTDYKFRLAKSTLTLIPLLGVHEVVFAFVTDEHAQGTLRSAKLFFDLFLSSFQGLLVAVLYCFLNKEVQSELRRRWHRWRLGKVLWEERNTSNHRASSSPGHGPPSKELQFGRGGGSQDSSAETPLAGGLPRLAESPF
Binder,Ki [1],Ki [2],Ki [3]
"YXEGTXTSDXSIXLDXKAQXEFIXXLIEGGPSSGAPPPSK (Aib2, αMeF(2F)6, 4Pal10, αMeL13, Orn16, K17(Z1), Aib20, D-Glu24, αMeY25, K40(Z1), C-term NH2; Z1=AEEA2-(γ-Glu)-CO-(CH2)10-CH3)",0.0291 nM,13.9 nM,0.194 nM
"YXEGTXTSDYXIXLDXKAQXEFIXXLIEGGPSSGAPPPSK (Aib2, αMeF(2F)6, Aib11, αMeL13, Orn16, K17(Z1), Aib20, D-Glu24, αMeY25, K40(Z1), C-term NH2; Z1=AEEA2-(γ-Glu)-CO-(CH2)10-CH3)",0.0228 nM,2.84 nM,0.137 nM
"YXEGTXTSDXXIXLDXKAQXEFIXXLIEGGPSSGAPPPSK (Aib2, αMeF(2F)6, 4Pal10, Aib11, αMeL13, Orn16, K17(Z1), Aib20, D-Glu24, αMeY25, K40(Z1), C-term NH2; Z1=AEEA2-(γ-Glu)-CO-(CH2)10-CH3)",0.0163 nM,6.28 nM,0.168 nM
"YXEGTXTSDKSIXLDXKAQXEXIXXLIEGGPSSGAPPPS (Aib2, αMeF(2F)6, K10(Z1), αMeL13, Orn16, K17(Z1), Aib20, αMeF22, D-Glu24, αMeY25, C-term NH2; Z1=AEEA2-(γ-Glu)-CO-(CH2)10-CH3)",0.022 nM,23.1 nM,0.211 nM
"YXEGTXTSDXSIXLDXKAQXEFIXXLIEGGKSSGAPPPS (Aib2, αMeF(2F)6, 4Pal10, αMeL13, Orn16, K17(Z1), Aib20, D-Glu24, αMeY25, K31(Z1), C-term NH2; Z1=AEEA2-(γ-Glu)-CO-(CH2)10-CH3)",0.0309 nM,44.8 nM,0.154 nM
"YXEGTXTSDXSIXLDXKAQXKFIXXLIXGGPSSGAPPPS (Aib2, αMeF(2F)6, 4Pal10, αMeL13, Orn16, K17(Z1), Aib20, K21(Z1), D-Glu24, αMeY25, Orn28, C-term NH2; Z1=AEEA2-(γ-Glu)-CO-(CH2)10-CH3)",0.0131 nM,14.3 nM,0.119 nM
"YXEGTXTSDXXIXLDXQAQXEFIKXLIKGGPSSGAPPPS (Aib2, αMeF(2F)6, 4Pal10, Aib11, αMeL13, Orn16, Aib20, K24(Z1), αMeY25, K28(Z1), C-term NH2; Z1=AEEA2-(γ-Glu)-(10-(4-carboxyphenoxy)decanoyl))",0.0375 nM,134 nM,0.424 nM
"YXEGTXTSDXXIXLDXKAQXEFIXXLIKGGPSSGAPPPS (Aib2, αMeF(2F)6, 4Pal10, Aib11, αMeL13, Orn16, K17(Z1), Aib20, D-Glu24, αMeY25, K28(Z1), C-term NH2; Z1=AEEA2-(γ-Glu)-CO-(CH2)10-CH3)",0.0195 nM,75.5 nM,0.325 nM
"YXEGTXTSDXSIXLDXKAQXXFIXXLIKGGPSSGAPPPS (Aib2, αMeF(2F)6, 4Pal10, αMeL13, Orn16, K17(Z1), Aib20, Orn21, D-Glu24, αMeY25, K28(Z1), C-term NH2; Z1=AEEA2-(γ-Glu)-CO-(CH2)10-CH3)",0.0215 nM,93.3 nM,0.101 nM

# — patent US20230265151A1, “GIP/GLP1 CO-AGONIST COMPOUNDS” (priority 2020, published 2023)
